Molecular target: the molecule itself
Assay: AUC

B1: TRF2 (hTERF2), full-length construct, residues 5-542 (natural protein, human, UniProt Q15554-3 5-542, looked up)
chain: AGTAGPASGPGVVRDPAASQPRKRPGREGGEGARRSDTMAGGGGSSDGSGRAAGRRASRSSGRARRGRHEPGLGGPAERGAGEARLEEAVNRWVLKFYFHEALRAFRGSRYGDFRQIRDIMQALLVRPLGKEHTVSRLLRVMQCLSRIEEGENLDCSFDMEAELTPLESAINVLEMIKTEFTLTEAVVESSRKLVKEAAVIICIKNKEFEKASKILKKHMSKDPTTQKLRNDLLNIIREKNLAHPVIQNFSYETFQQKMLRFLESHLDDAEPYLLTMAKKALKSESAASSTGKEDKQPAPGPVEKPPREPARQLRNPPTTIGMMTLKAAFKTLSGAQDSEAAFAKLDQKDLVLPTQALPASPALKNKRPRKDENESSAPADGEGGSELQPKNKRMTISRLVLEEDSQSTEPSAGLNSSQEAASAPPSKPTVLNQPLPGEKNPKVPKGKWNSSNGVEEKETWVEEDELFQVQAAPDEDSTTNITKKQKWTVEESEWVKAGVQKYGEGNWAAISKNYPFVNRTAVMIKDRWRTMKRLGMN
B1 was tested, and the “stoichiometry N” value was 2.

Reference: publication PMC9378516 (Journal of molecular biology, 2022)
